Literature values in article PMC3057930.

Target: CaMKIIp (UniProt Q9UQM7)
Sequence (Q9UQM7 293-312): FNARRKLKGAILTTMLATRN

Kd: 950 nM
Substance: (Ca2+)2-CaM76-148 76-148 (from UniProt P0DP29)
